Experimental findings from patent US20260286002 (published 2026) are described below.

Like-named read-outs stand apart in the source and are kept apart here.

For test [1], the target named is T1, human CD39-His (human, UniProt P49961).
T1 chain: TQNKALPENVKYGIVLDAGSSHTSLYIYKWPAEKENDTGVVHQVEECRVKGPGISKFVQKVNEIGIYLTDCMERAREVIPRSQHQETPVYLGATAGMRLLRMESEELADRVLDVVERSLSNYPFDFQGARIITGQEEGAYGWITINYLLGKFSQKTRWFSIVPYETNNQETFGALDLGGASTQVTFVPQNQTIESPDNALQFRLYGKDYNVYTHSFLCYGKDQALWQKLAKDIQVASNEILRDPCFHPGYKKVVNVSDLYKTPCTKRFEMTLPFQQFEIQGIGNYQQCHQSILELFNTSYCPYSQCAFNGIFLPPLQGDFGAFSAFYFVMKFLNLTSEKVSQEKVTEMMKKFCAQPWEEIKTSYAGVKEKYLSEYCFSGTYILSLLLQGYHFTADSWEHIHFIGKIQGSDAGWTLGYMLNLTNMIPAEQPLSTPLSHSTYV
The test can be described thus: BLI.

In test [2] the target is T1, human CD39-His. The test can be described thus: BLI.

B1: B391-F04 (designed binder)
chain: QLQLVESGGGLVQPGGSLRLSCAASGFTFSNLGMSWYRQAPGKAREWVGSISASGDYTTYQNSVKGRFTISRDNAKNTLYLQMNNLKPEDTGVYYCTRRVDSYPRGQGTQVTVSS
For B1, the Kd in test [1] is 398 pM; in test [2], 255 pM.
